US20240342246A1 (YALE UNIVERSITY, published 2024)
Where a chain is given by its changes, count along the chain named. Names may count otherwise.

B1: wild-type (WT) IL-12 (ligand)
chain 1: IWELKKDVYVVELDWYPDAPGEMVVLTCDTPEEDGITWTLDQSSEVLGSGKTLTIQVKEFGDAGQYTCHKGGEVLSHSLLLLHKKEDGIWSTDILKDQKEPKNKTFLRCEAKNYSGRFTCWWLTTISTDLTFSVKSSRGSSDPQGVTCGAATLSAERVRGDNKEYEYSVECQEDSACPAAEESLPIEVMVDAVHKLKYENYTSSFFIRDIIKPDPPKNLQLKPLKNSRQVEVSWEYPDTWSTPHSYFSLTFCVQVQGKSKREKKDRVFTDKTSATVICRKNASISVRAQDRYYSSSWSEWASVPCS
chain 2: RNLPVATPDPGMFPCLHHSQNLLRAVSNMLQKARQTLEFYPCTSEEIDHEDITKDKTSTVEACLPLELTKNESCLNSRETSFITNGSCLASRKTSFMMALCLSSIYEDLKMYQVEFKTMNAKLLMDPKRQIFLDQNMLAVIDELMQALNFNSETVPQKSSLEEPDFYKTKIKLCILLHAFRIRAVTIDRVMSYLNAS
B2: IL-12 H216A/K217A/K219A triple mutant (HKK) (ligand)
chain 1: B1 chain 1 with H194A, K195A, K197A
chain 2: B1 chain 2
B3: H216A/K219A IL-12 (IL-12p40 HK219 with WT IL-12p35) (ligand)
chain 1: B1 chain 1 with H194A, K197A
chain 2: B1 chain 2

Target: IL-12 receptor β1 (IL-12Rβ1) (human, UniProt P42701 24-662)
Assay: cell-based or functional assay

| Binder | EC50 of STAT4 phosphorylation in human NK cells (flow cytometry, FIG. 3A) [µg/mL] | EC50 of STAT4 phosphorylation in human NK cells (flow cytometry, FIG. 3B) [µg/mL] |
| --- | --- | --- |
| B1 | 0.0408 | 0.0574 |
| B2 | 0.839 |  |
| B3 |  | 0.29 |
